Consider 5 molecules from patent publication US20110236380A1 (published 2011).

Substitutions are numbered along the chain they refer to.

Sequences and labels used below:
B1: DOM10-53-567 (other)
VH: GVQLLESGGGLVQPGGSLRLSCAASGFVFAWYDMGWVRQAPGKGLEWVSSIDWHGEVTYYADSVKGRFTISRDNSKNTLYLQMNSLRAEDTAVYYCATAEDEPGYDYWGQGTLVTVSS
B2: DOM10-53-616 (other)
VH: B1 VH with A30P, E56K, V57I
B3: DOM10-53-546 (other)
VH: B1 VH with A30P, H54K, E56G, V57K
B4: DOM10-53-474 (other)
VH: B1 VH with V28T
notes: Anti-IL-13 immunoglobulin single variable domain (dAb), monomer
B5: DOM10-53-568 (other)
VH: B1 VH with E56K, V57I

T2 sequence (P35225 35-146 limits assumed): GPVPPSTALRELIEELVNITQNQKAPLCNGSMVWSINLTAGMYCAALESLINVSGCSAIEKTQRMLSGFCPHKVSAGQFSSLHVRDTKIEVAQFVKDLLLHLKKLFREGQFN
T1 sequence (Q0PW92 entry or part of it): as the sequence (P35225 35-146 limits assumed) above, with G1S, R10K, M42V, S67N, H83R, L100V counted along it

One experiment addresses T1, Cynomolgus monkey IL-13 (cynomolgus monkey, UniProt Q0PW92 21-132).
T1 construct: Biotinylated and captured on a streptavidin chip in the Biacore assays; also called cyno IL-13; cynomolgous IL-13
The experiment can be described thus: Biacore SPR, biotinylated IL-13 on streptavidin chip, dAb as analyte, 1:1 model, 25 C. The procedure: (§1) The binding affinities of purified DOM10 dAbs to both human and cyno IL-13 were assessed by Biacore analysis. Analysis was carried out using biotinylated IL-13. About 150 RU of biotinylated IL-13 was coated to a streptavidin (SA) chip (Biacore, GE healthcare). The surface was regenerated back to baseline using 0.1 M Glycine pH 2. dAbs were passed over this surface at defined concentrations using a flow rate of 50 μl/min. Data were analyzed using BIAevaluation software (Biacore, GE Healthcare) and fitted to the 1:1 model of binding. The binding data fitted well to the 1:1 model for all DOM10 dAbs. Biacore runs were carried out at 25° C.
A word on the Kd: it is the equilibrium constant for the complex coming apart. Regarding B1, the Kd worked out at 2.6 nM.

Turning to B2, the affinity, expressed as Kd, was 3.2 nM.

The molecule B3 showed a Kd of 2.1 nM.

Turning to B4, the equilibrium dissociation constant (Kd) amounted to 9.3 nM.

The molecule B5 gave a Kd of 1.6 nM.

A further experiment addresses T2, human IL-13 (human, UniProt P35225 35-146, limits assumed).
T2 construct: Biotinylated and captured on a streptavidin chip in the Biacore assays; not biotinylated (IL-13, GSK) in the ELISA and HEK Blue-STAT6 assays; also called human interleukin-13; IL-13 (GSK)
Described as above. The procedure: as §1
With B1, the affinity, expressed as Kd, was 0.072 nM.

On to B2, for which the affinity, expressed as Kd, was 0.13 nM.

Regarding B3, the affinity, expressed as Kd, was 0.094 nM.

Molecule B4 showed a Kd of 0.259 nM.

B5: the Kd stood at 0.07 nM.

The target in a further experiment is T1, Cynomolgus monkey IL-13. As to the kind of experiment: cell-based or functional assay.
B1: the “HEK assay Cyno EC50” value was determined as 5.1 nM.

Regarding B2, the “HEK assay Cyno EC50” value was 5.9 nM.

On to B3, for which the “HEK assay Cyno EC50” value was 5.9 nM.

Consider B4, for which the “HEK assay Cyno EC50” value came out at 30.1 nM.

As to B5, the “HEK assay Cyno EC50” value came to 8.8 nM.

The target of the next experiment is rhesus IL-13 (rhesus, UniProt Q864V6 19-132, limits assumed). The experiment can be described thus: cell-based or functional assay.
rhesus IL-13, sequence (Q864V6 19-132 limits assumed): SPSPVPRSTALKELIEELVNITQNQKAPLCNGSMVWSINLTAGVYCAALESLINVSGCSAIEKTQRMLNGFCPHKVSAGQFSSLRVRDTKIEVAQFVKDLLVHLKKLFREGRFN
For the molecule B1, the “HEK assay Rhesus EC50” value was 2.8 nM.

With B2, the “HEK assay Rhesus EC50” value stood at 7.6 nM.

On to B3, for which the “HEK assay Rhesus EC50” value is 11.4 nM.

On to B4, for which the “HEK assay Rhesus EC50” value was determined as 30.2 nM.

For B5, the “HEK assay Rhesus EC50” value is 8.1 nM.

In the next experiment the target is T2, human IL-13. The experiment can be described thus: cell-based or functional assay.
Consider B1, for which the “HEK assay Human EC50” value was 0.31 nM.

As to B2, the “HEK assay Human EC50” value came to 2.9 nM.

For B3, the “HEK assay Human EC50” value worked out at 1 nM.

As to B4, the “HEK assay Human EC50” value amounted to 2 nM.

Consider B5, for which the “HEK assay Human EC50” value came out at 0.62 nM.

Another experiment deals with T2, human IL-13. As to the kind of experiment: DOM10 sandwich ELISA: dAb dilution series mixed with 150 pg/ml human IL-13, loss of IL-13 detection by the kit antibodies. Here is the method:
dAbs were also tested in DOM10 ELISA to assess the potency against human IL-13 and cell based HEK Blue-STAT6 (HEK STAT) assays to assess the potency against human, cyno and Rhesus IL-13. DOM10 ELISA measures the ability of DOM10 dAbs to bind IL-13 and prevent its binding to an IL-13 detection antibody. A MAXISORP™ plate (high protein binding ELISA plate, Nunc, Denmark) is coated overnight with 2.5 μg/ml coating antibody (Module Set, Bender MedSystems, Vienna, Austria), then washed once with 0.1% (v/v) Tween 20 in PBS before blocking with 0.5% (w/v) BSA 0.05% (v/v) Tween 20 in PBS for 2 hours at room temperature. The plate is washed twice as previously detailed before the addition of 150 pg/ml IL-13 (GSK) mixed with a dilution series of DOM10 dAb (i.e., an anti-IL-13 dAb) and incubated for 1 hour. The plate is washed twice before binding of IL-13 to the capture antibody is detected using biotin conjugated detection antibody (Module Set, Bender Medsystems), followed by peroxidase labelled Streptavidin (Module Set, Bender MedSystems). Finally the plate is washed three times before incubation with TMB substrate (KPL, Gaithersburg, USA), and the reaction stopped by the addition of HCl and the absorbance read at 450 nm. Anti-IL-13 dAb activity causes a decrease in IL-13 binding and therefore a decrease in absorbance compared with the IL-13 only control.
By EC50 is commonly meant the concentration that produces a half-maximal response. Turning to B1, the concentration giving a half-maximal response (EC50) came to 0.021 nM.

B2 yielded an EC50 of 0.048 nM.

Turning to B3, the EC50 was found to be 0.125 nM.

Consider B4, for which the EC50 worked out at 0.217 nM.
